Where two headings read alike, the source gives them in different places. Oligonucleotides are written 5' to 3', each unit as a sugar letter and its base; * is a phosphorothioate linkage, no mark a phosphodiester; rarer units and linkages stand in square brackets, end groups in braces. Plain capitals give the bases only. d = 2'-deoxy (DNA); r = 2'-OH (RNA); f = 2'-fluoro
Columns and labels:
[1] = biological target: T1, human vWF A1 domain (SEQ ID NO 5) (Homo sapiens, UniProt P04275, T1381A); assay: 3-point dot blot screen, human vWF A1 domain; assay type: binding; settings: 100 nM human vWF A1 domain
T1 sequence (P04275 with tags, fused parts or gaps T1381A): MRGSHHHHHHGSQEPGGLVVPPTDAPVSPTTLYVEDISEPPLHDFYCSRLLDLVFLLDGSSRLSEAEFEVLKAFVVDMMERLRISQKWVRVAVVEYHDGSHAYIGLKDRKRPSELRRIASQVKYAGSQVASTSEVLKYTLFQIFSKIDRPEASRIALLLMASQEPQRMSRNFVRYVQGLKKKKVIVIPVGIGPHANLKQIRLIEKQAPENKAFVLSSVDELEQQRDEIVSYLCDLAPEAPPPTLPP
How it was run: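 Values are ratios of aptamer fraction retained on nitrocellulose with 100 nM vWF A1 domain (human or rabbit) versus a no-protein control. Unique clones from rounds 9 and 12 pools were transcribed, desalted and 5'-32P labeled before this three-point dot blot screen.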

[2] = test system: rabbit vWF A1 domain (SEQ ID NO 6); assay: 3-point dot blot screen, rabbit vWF A1 domain; assay type: binding; settings: 100 nM rabbit vWF A1 domain, ratio of fraction bound with target to without
rabbit vWF A1 domain (SEQ ID NO 6), sequence (as listed by the source): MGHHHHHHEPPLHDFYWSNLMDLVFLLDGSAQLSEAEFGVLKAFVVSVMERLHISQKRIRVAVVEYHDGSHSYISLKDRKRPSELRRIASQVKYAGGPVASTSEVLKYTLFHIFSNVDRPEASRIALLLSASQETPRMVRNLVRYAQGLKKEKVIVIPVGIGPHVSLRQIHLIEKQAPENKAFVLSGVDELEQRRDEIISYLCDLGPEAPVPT
How it was run: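 Rabbit vWF A1 domain binding was screened by dot blot using three conditions: no target protein, human vWF, and rabbit vWF A1 domain at 100 nM (20 nM in the screen run twice). Radiolabeled aptamer bound to nitrocellulose was quantified, and results are expressed as the ratio of bound fraction with protein to bound fraction without protein.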

[3] = test system: full length human vWF binding to lyophilized platelets; assay: Full length human von Willebrand Factor platelet binding assay (FACS); assay type: cell-based; settings: 5 nM full length human vWF, lyophilized platelets, botrocetin; both bounds in nM
Procedure: The amount of vWF bound to fixed platelets can be measured with an antibody to vWF. The fluorescence signal from bound antibody incubated with a fluorescein conjugated secondary antibody is then detected and quantified by flow cytometry. The ability of an aptamer of the invention to block vWF binding to platelets is correlated with a reduction in fluorescence signal.
Aptamer potency to block human vWF binding to lyophilized platelets was assessed by flow cytometric analysis. Titrations of aptamers (0 nM, 0.1 nM to 1000 nM) were pre-incubated briefly with 5 nM of full length human vWF in FACS buffer (PBS plus 0.5% bovine serum albumin) at room temperature in a volume of 50 uL. Another 50 uL containing 5 uL of lyophilized platelets plus 1 uL of 0.1 U/uL of botrocetin in FACS buffer was added to aptamer/vWF. This reaction was allowed to proceed for 15 minutes at 37 degrees C. after which 200 uL of FACS buffer was added. Platelets were collected by a 6 minute spin at 1470 RCF and the supernatant was discarded. The pellets were resuspended in 100 uL of FACS buffer containing a 1:100 dilution of anti-vWF antibody and were incubated at room temperature for 30 minutes. After dilution with 200 uL of FACS buffer, the platelets were spun at 1470 RCF for 6 minutes and the supernatant was discarded. The pellets were resuspended in a 1:100 solution of anti-IgG2a-FITC antibody and were incubated in the dark for 30 minutes at room temperature. The entire 100 uL was diluted into 200 uL of FACS buffer and analyzed immediately by flow cytometric analysis in the FACSCAN. Artifactual data from contaminating debris was eliminated from the analysis by drawing a gate around the population of single and aggregated platelets. Mean fluorescent intensity (“MFI”) readings were quantified for each sample analyzed by flow cytometry. Background MFI was subtracted from all data points. Percent inhibition was reported by calculating the percent value of binding of full length human vWF to platelets in the presence of aptamer at a given concentration relative to binding in the absence of any aptamer (see FIG. 7). IC50 values were determined by fitting the percent inhibition of vWF binding to platelets as a function of aptamer concentration to the equation: % inhibition=% inhibitionmax/(1+IC50/aptamer conc.)

[4] = biological target: T1, human vWF A1 domain (SEQ ID NO 5); assay: dot blot KD determination, human vWF A1 domain
Procedure: For KD determination, aptamers transcripts were purified on 10% denaturing polyacrylamide gels, 5′ end labeled with γ-^32P ATP.
For KD determination, aptamers were purified on denaturing polyacrylamide gels and 5′-end labeled with γ-^32P ATP. A 6 point protein titration of human vWF A1 domain (SEQ ID NO 5) was used in the dot blot assay (333 nM, 100 nM, 33 nM, 10 nM, 3 nM, 0 nM) in 1×DPBS plus 0.1 mg/mL BSA at room temperature for 30 minutes. KD values were calculated by fitting the equation y=(max/(1+K/protein))+yint using KaleidaGraph (KaleidaGraph v. 3.51, Synergy Software).
KD values were calculated by fitting the equation y=(max/(1+K/protein))+yint using KaleidaGraph (KaleidaGraph v. 3.51, Synergy Software).
All minimer sequences were transcribed, gel-purified on 15% denaturing polyacrylamide gels, 5-^32 end-labeled with γ^32P ATP, and then desalted using two Centri-Spin 10 columns (Princeton Separations Cat. #CS-101, Adelphia, N.J.). For KD determination, minimer transcripts were tested for direct binding to full length human vWF (SEQ ID NO 7), human vWF A1 domain (SEQ ID NO 5), and rabbit vWF A1 domain (SEQ ID NO 6) using an 8 point protein titration from 0-300 nM (3 fold dilutions) in 1× Dulbecco's PBS containing 0.1 mg/mL BSA (in a final volume of 50 uL) for 30 minutes at room temperature and then applied to a nitrocellulose and nylon filter sandwich in a dot blot apparatus (Schleicher and Schuell, Keene, N.H.). KD values were calculated by fitting the equation y=(max/(1+K/protein))+yint using KaleidaGraph (KaleidaGraph v. 3.51, Synergy Software).
All minimer DNA sequences were chemically synthesized, 5-^32P end-labeled with γ-^32P ATP, and then desalted using two Centri-Spin 10 columns (Princeton Separations, Cat. #CS-101, Adelphia, N.J.). […] KD values were calculated by fitting the equation y=(max/(1+K/protein))+yint using KaleidaGraph (KaleidaGraph v. 3.51, Synergy Software).

[5] = rRfY aptamers, ratio of fraction bound with target to fraction bound without target
[6] = read-out: human A1 KD, rRfY aptamers, 8 point titration of human vWF A1 domain
[7] = rRdY aptamers, ratio of fraction bound with target to without
[8] = read-out: Human A1 KD, rRdY aptamers, 6 point protein titration

| Molecule | Screen- Human/No Protein [1, 5] | Screen- Rabbit/No Protein ([2]; rRfY aptamers) | Inhibition of full length hVWF binding in FACS assay, IC50 range [3] | Kd [4, 6] [nM] | Screen- Human/No Protein [1, 7] | Screen- Rabbit/No Protein ([2]; rRdY aptamers) | Kd [4, 8] [nM] |
| --- | --- | --- | --- | --- | --- | --- | --- |
| AMX201.G1: rRfY aptamer clone (nucleic acid) rGrGrArGfCrGfCrAfCfUfCrArGfCfCrAfCrGfCfUfCrGrGfUrGrGrGrGrArArAfUfUfUfUrArGfCfCfUrArAfUfUrGrGfCfUrAfCfUfUrGfUrGfCrGfUfUfUfCrGrAfCfCfUfCfUfCfUrGfCfUrArGfC | 2.14 | 2.20 | no activity | 190 |  |  |  |
| AMX198.G1: rRfY aptamer clone (nucleic acid) rGrGrArGfCrGfCrAfCfUfCrArGfCfCrAfCrArAfCrAfCfUrArAfUrGrGrGrGrArArArGfUfUfCrArArGrGrAfUfUfCfUfUrGrAfCfCrGrGfUrGfCrGfUfUfUfCrGrAfCfCfUfCfUfCfUrGfCfUrArGfC | 1.89 | 1.90 | no activity | 45 |  |  |  |
| AMX205.H11: rRdY aptamer clone (nucleic acid) rGrGrArGdCrGdCrAdCdTdCrArGdCdCrAdCrGrGdCrAdCrGrAdCrGrGdTrGrAdTrGrGrAdTdTrArGdCrGdCrGrGdTrGdTdCrGrGdTrGrGdTrGdTdCrAdTdTdTdCrGrAdCdCdTdCdTdCdTrGdCdTrArGdC |  |  | no activity |  | 2.18 | 2.41 | 144 |
| AMX205.D11: rRdY aptamer clone (nucleic acid) rGrGrArGdCrGdCrAdCdTdCrArGdCdCrAdCrGrGdCrAdCrGrAdCrGrGdTrGrAdTrGrArAdTdTrArGdCrGdCrGrGdTrGdTdCrGrGdTrGrGdTrGdTdCrAdTdTdTdCrGrAdCdCdTdCdTdCdTrGdCdTrArGdC |  |  | no activity |  | 2.22 | 2.07 | 124 |
| AMX206.F9: rRdY aptamer clone (nucleic acid) rGrGrArGdCrGdCrAdCdTdCrArGdCdCrAdCrGrGrArGdCrGdTdCrGrGdTrGrAdTrGrGrAdTdTrArGdCrGdCrGrGdCdTdCdCrGdTrGrGdTrAdCrAdCrAdTdTdTdCrGrAdCdCdTdCdTdCdTrGdCdTrArGdC |  |  | no activity |  | 2.98 | 3.00 | 139 |
| AMX206.H9: rRdY aptamer clone (nucleic acid) rGrGrArGdCrGdCrAdCdTdCrArGdCdCrAdCrGrGrArGdCrGdTdCrGrGdTrGrAdTrGrGrAdTdTrArGdCrGdCrGrGdTdTdCdCrGdTrGrGdTrAdCrAdCdCdTdTdTdCrGrAdCdCdTdCdTdCdTrGdCdTrArGdC |  |  | no activity |  | 1.98 | 2.31 | 109 |
| AMX206.A10: rRdY aptamer clone (nucleic acid) rGrGrArGdCrGdCrAdCdTdCrArGdCdCrAdCrGrGdCrAdTrGrAdCrGrGdTrGrAdTrGrArAdTdTrArGdCrGdCrGrGdTrGdTdCrGrGdTrGrGdTrGdTdCrAdTdTdTdCrGrAdCdCdTdCdTdCdTrGdCdTrArGdC |  |  | no activity |  | 2.62 | 2.58 | 111 |
| AMX205.F9: rRdY aptamer clone (nucleic acid) rGrGrArGdCrGdCrAdCdTdCrArGdCdCrAdCrGrGrArGdCrGdTdCrGrGdTrGrAdTrGrGrAdTdTrArGdCrGdCrGrGdCdTdCdCrGdTrGrGdTrAdCrGdCdCdTdTdTdCrGrAdCdCdTdCdTdCdTrGdCdTrArGdC |  |  | no activity |  | 2.22 | 2.47 | 145 |
| AMX206.E7: rRdY aptamer clone (nucleic acid) rGrGrArGdCrGdCrAdCdTdCrArGdCdCrAdCrGrGrArGdCrGdTdCrGrGdTrGrAdTrGrGrAdTdTrArGdCrGdCrGrGdCdTdCdCrGdTrGrGdTrAdCrAdCdCdTdTdTdCrGrAdCdCdTdCdTdCdTrGdCdTrArGdC |  |  | no activity |  | 2.11 | 2.26 | 151 |
| AMX206.D7: rRdY aptamer clone (nucleic acid) rGrGrArGdCrGdCrAdCdTdCrArGdCdCrAdCrGrGdCrAdCrGrAdCrGrGdTrGrAdTrGrArAdTdTrArGdCrGdCrGrGdTrGdTdCrGrGdTrGrGdTrGdTdTrAdTdTdTdCrGrAdCdCdTdCdTdCdTrGdCdTrArGdC |  |  | no activity |  | 2.19 | 2.08 | 187 |
| AMX203.A1: rRdY aptamer clone (nucleic acid) rGrGrArGdCrGdCrAdCdTdCrArGdCdCrAdCrArGdTdTdCdTrGdTdCrGrGdTrGrAdTrGrArAdTdTrArGdCrGdCrGrGrGrArGdCdTrGdTrGrGrGrAdCrGdTdTdTdCrGrAdCdCdTdCdTdCdTrGdCdTrArGdC |  |  | no activity |  | 2.99 | 2.67 | 1150 |
| AMX205.H9: rRdY aptamer clone (nucleic acid) rGrGrArGdCrGdCrAdCdTdCrArGdCdCrAdCrGrAdCrGrGdTrGrAdTrGrGrAdTdTrArGdCrGdCrGrGdTrGrGrArGrArArGrAdTrGdCrGdCdTrGdTdTrGdTdTdTdCrGrAdCdCdTdCdTdCdTrGdCdTrArGdC |  |  | no activity |  | 2.36 | 3.14 | 178 |
| AMX203.D6: rRdY aptamer clone (nucleic acid) rGrGrArGdCrGdCrAdCdTdCrArGdCdCrAdCrArGdTdTdCdTrGdTdCrGrGdTrGrAdTrGrArAdTdTrArGdCrGdCrGrArGrArGdCdTrGdTrGrGrGrAdCrGdTdTdTdCrGrAdCdCdTdCdTdCdTrGdCdTrArGdC |  |  | no activity |  | 1.92 | 1.57 | 523 |
| AMX205.H8: rRdY aptamer clone (nucleic acid) rGrGrArGdCrGdCrAdCdTdCrArGdCdCrAdCrArArAdCrGrGrAdCrGrGdTrGrAdTrGrGrAdTdTrArAdCrGdCrGrGrGdTdTdTrAdTrGrGdCrArArGrGdTdTdTdCrGrAdCdCdTdCdTdCdTrGdCdTrArGdC |  |  | no activity |  | 2.04 | 2.84 | 788 |

Source: US7998940B2, “Aptamers to von Willebrand factor and their use as thrombotic disease therapeutics” (Archemix Corp., priority 2004, dated 2011)
